Results as given in patent publication US20090111745A1 (DOMANTIS, published 2009).
Substitutions are numbered along the chain they refer to.

What was measured:
[1] = biological target: T1, mouse serum albumin (mouse, UniProt P07724 25-608); assay: phage display selection on albumin (figure legend)
T1 construct: also called MSA

[2] = biological target: T2, rat serum albumin (rat, UniProt P02770 25-608); assay: BIACORE, RSA flow cell (Fc=3), fit of the single trace at 20n analyte, row 'Fc=3 -2' [contd.]
T2 construct: also called RSA
Procedure: (§1) dAbs that bound serum albumin on a BIACORE chip (Biacore AB) were then further analysed to obtain information on affinity. The analysis was performed using a CM5 chip (carboxymethylated dextran matrix) that was coated with serum albumin. Flow cell 1 was an uncoated, blocked negative control, flow cell 2 was coated with HSA, flow cell 3 was coated with RSA and flow cell 4 was coated with MSA. The serum albumins were immobilised in acetate buffer pH 5.5 using the BIACORE coating wizard which was programmed to aim for 500 resonance units (RUs) of coated material. Each dAb of interest was expressed in the periplasm of E. coli on a 200 mL-500 mL scale and purified from the supernatant using batch absorption to protein A-streamline affinity resin (Amersham, UK) for the VH_{^S} and to protein L-agarose affinity resin (Affitech, Norway) for the Vκs followed by elution with glycine at pH 2.2 and buffer exchange to PBS. A range of concentrations of dAb were prepared (in the range 5 nM to 5 μM) by dilution into BIACORE HBS-EP buffer and flowed across the BIACORE chip.

[3] = biological target: T2, rat serum albumin; assay: BIACORE, RSA flow cell (Fc=3), fit of the single trace at 10n analyte, row 'Fc=3 -4'; KD cell shaded [contd.]
Procedure: (§2) dAbs that bound serum albumin on a BIACORE chip (Biacore AB) were then further analysed to obtain information on affinity. The analysis was performed using a CM5 chip (carboxymethylated dextran matrix) that was coated with serum albumin. Flow cell 1 was an uncoated, blocked negative control, flow cell 2 was coated with HSA, flow cell 3 was coated with RSA and flow cell 4 was coated with MSA. The serum albumins were immobilised in acetate buffer pH 5.5 using the BIACORE coating wizard which was programmed to aim for 500 resonance units (RUs) of coated material. […] A range of concentrations of dAb were prepared (in the range 5 nM to 5 μM) by dilution into BIACORE HBS-EP buffer and flowed across the BIACORE chip.

[4] = biological target: T2, rat serum albumin; assay: BIACORE SPR, albumin on a CM5 chip, dAb in solution
Procedure: as §1

[5] = biological target: T2, rat serum albumin; assay: BIACORE, RSA flow cell (Fc=3), fit of the single trace at 5n analyte, row 'Fc=3 -5'; KD cell shaded [contd.]
Procedure: as §1

[6] = biological target: T2, rat serum albumin; assay: BIACORE, RSA flow cell (Fc=3), fit of the single trace at 20n analyte, row 'Fc=3 -2'; KD cell shaded [contd.]
Procedure: as §1

[7] = biological target: T2, rat serum albumin; assay: BIACORE, RSA flow cell (Fc=3), fit of the single trace at 15n analyte, row 'Fc=3 -3'; KD cell shaded [contd.]
Procedure: as §1

[8] = biological target: T2, rat serum albumin; assay: BIACORE, RSA flow cell (Fc=3), fit of the single trace at 5n analyte, row 'Fc=3 -5' [contd.]
Procedure: as §1

[9] = biological target: T2, rat serum albumin; assay: BIACORE, RSA flow cell (Fc=3), fit of the single trace at 25n analyte, row 'Fc=3 -1'; KD cell shaded [contd.]
Procedure: as §2

[10] = biological target: T1, mouse serum albumin; assay: table of affinities (KD); BIACORE on serum albumin-coated chip according to Example 1;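 further: surface plasmon resonance with dAbs flowed over a chip carrying human, rat or mouse serum albumin, blocked uncoated flow cell as reference, KD from on- and off-rate curve fits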
Procedure: as §1

[11] = biological target: T2, rat serum albumin; assay: as above
Procedure: as §1

[12] = biological target: T3, human serum albumin (human, UniProt P02768 25-609); assay: as above
T3 construct: also called HSA; HAS
Procedure: as §1

[13] = biological target: T2, rat serum albumin; assay: BIACORE, RSA flow cell (Fc=3), fit of the single trace at 10n analyte, row 'Fc=3 -4' [contd.]
Procedure: as §1

[14] = biological target: T2, rat serum albumin; assay: BIACORE, RSA flow cell (Fc=3), fit of the single trace at 25n analyte, row 'Fc=3 -1' [contd.]
Procedure: as §1

[15] = biological target: T2, rat serum albumin; assay: BIACORE, RSA flow cell (Fc=3), fit of the single trace at 15n analyte, row 'Fc=3 -3' [contd.]
Procedure: as §1

[16] = biological target: T3, human serum albumin; assay: BIACORE SPR, albumin on a CM5 chip, dAb in solution
Procedure: as §1

[17] = biological target: porcine serum albumin (porcine, UniProt P08835 25-607); assay: method not stated in the legend (BIACORE SPR for the other affinities)
[18] = biological target: T3, human serum albumin; assay: method not stated there (BIACORE SPR in Example 1); reference value given inside prophetic Example 10
[19] = biological target: T3, human serum albumin; assay: BIACORE, HSA flow cell (Fc=2), fit of the single trace at 500n analyte, row 'Fc=2 - 5' [contd.]
Procedure: as §1

[20] = biological target: T3, human serum albumin; assay: BIACORE, HSA flow cell (Fc=2), fit of the single trace at 250n analyte, row 'Fc=2 - 6'; KD cell shaded [contd.]
Procedure: as §2

[21] = biological target: T3, human serum albumin; assay: BIACORE, HSA flow cell (Fc=2), fit of the single trace at 2000n analyte, row 'Fc=2 - 3'; KD cell shaded [contd.]
Procedure: as §1

[22] = biological target: T3, human serum albumin; assay: BIACORE, HSA flow cell (Fc=2), fit of the single trace at 250n analyte, row 'Fc=2 - 6' [contd.]
Procedure: as §1

[23] = biological target: T3, human serum albumin; assay: BIACORE, HSA flow cell (Fc=2), fit of the single trace at 2000n analyte, row 'Fc=2 - 3' [contd.]
Procedure: as §1

[24] = biological target: T3, human serum albumin; assay: BIACORE, HSA flow cell (Fc=2), fit of the single trace at 1000n analyte, row 'Fc=2 - 4' [contd.]
Procedure: as §1

[25] = biological target: T3, human serum albumin; assay: BIACORE, HSA flow cell (Fc=2), fit of the single trace at 1000n analyte, row 'Fc=2 - 4'; KD cell shaded [contd.]
Procedure: as §1

[26] = biological target: T3, human serum albumin; assay: BIACORE, HSA flow cell (Fc=2), fit of the single trace at 500n analyte, row 'Fc=2 - 5'; KD cell shaded [contd.]
Procedure: as §2

[27] = biological target: T3, human serum albumin; assay: BIACORE, HSA flow cell (Fc=2), fit of the single trace at 500n analyte, row 'Fc=2 - 45'; KD cell shaded [contd.]
Procedure: as §1

[28] = biological target: T3, human serum albumin; assay: BIACORE, HSA flow cell (Fc=2), fit of the single trace at 1000n analyte, row 'Fc=2 - 44'; KD cell not shaded [contd.]
Procedure: as §1

[29] = biological target: T3, human serum albumin; assay: BIACORE, HSA flow cell (Fc=2), fit of the single trace at 125n analyte, row 'Fc=2 - 47' [contd.]
Procedure: as §1

[30] = biological target: T3, human serum albumin; assay: BIACORE, HSA flow cell (Fc=2), fit of the single trace at 250n analyte, row 'Fc=2 - 46'; KD cell shaded [contd.]
Procedure: as §1

[31] = biological target: T3, human serum albumin; assay: BIACORE, HSA flow cell (Fc=2), fit of the single trace at 1000n analyte, row 'Fc=2 - 44' [contd.]
Procedure: as §1

[32] = biological target: T3, human serum albumin; assay: BIACORE, HSA flow cell (Fc=2), fit of the single trace at 5000n analyte, row 'Fc=2 - 41' [contd.]
Procedure: as §2

[33] = biological target: T3, human serum albumin; assay: BIACORE, HSA flow cell (Fc=2), fit of the single trace at 2000n analyte, row 'Fc=2 - 43' [contd.]
Procedure: as §1

[34] = biological target: T3, human serum albumin; assay: BIACORE, HSA flow cell (Fc=2), fit of the single trace at 3000n analyte, row 'Fc=2 - 42'; KD cell not shaded [contd.]
Procedure: as §1

[35] = biological target: T3, human serum albumin; assay: BIACORE, HSA flow cell (Fc=2), fit of the single trace at 3000n analyte, row 'Fc=2 - 42' [contd.]
Procedure: as §1

[36] = biological target: T3, human serum albumin; assay: BIACORE, HSA flow cell (Fc=2), fit of the single trace at 5000n analyte, row 'Fc=2 - 41'; KD cell not shaded [contd.]
Procedure: as §1

[37] = biological target: T3, human serum albumin; assay: BIACORE, HSA flow cell (Fc=2), fit of the single trace at 62.5n analyte, row 'Fc=2 - 48'; KD cell shaded [contd.]
Procedure: as §2

[38] = biological target: T3, human serum albumin; assay: BIACORE, HSA flow cell (Fc=2), fit of the single trace at 500n analyte, row 'Fc=2 - 45' [contd.]
Procedure: as §1

[39] = biological target: T3, human serum albumin; assay: BIACORE, HSA flow cell (Fc=2), fit of the single trace at 2000n analyte, row 'Fc=2 - 43'; KD cell not shaded [contd.]
Procedure: as §1

[40] = biological target: T3, human serum albumin; assay: BIACORE, HSA flow cell (Fc=2), fit of the single trace at 250n analyte, row 'Fc=2 - 46' [contd.]
Procedure: as §1

[41] = biological target: T3, human serum albumin; assay: BIACORE, HSA flow cell (Fc=2), fit of the single trace at 125n analyte, row 'Fc=2 - 47'; KD cell shaded [contd.]
Procedure: as §1

[42] = biological target: T3, human serum albumin; assay: BIACORE, HSA flow cell (Fc=2), fit of the single trace at 62.5n analyte, row 'Fc=2 - 48' [contd.]
Procedure: as §1

porcine serum albumin, sequence (P08835 25-607 limits assumed): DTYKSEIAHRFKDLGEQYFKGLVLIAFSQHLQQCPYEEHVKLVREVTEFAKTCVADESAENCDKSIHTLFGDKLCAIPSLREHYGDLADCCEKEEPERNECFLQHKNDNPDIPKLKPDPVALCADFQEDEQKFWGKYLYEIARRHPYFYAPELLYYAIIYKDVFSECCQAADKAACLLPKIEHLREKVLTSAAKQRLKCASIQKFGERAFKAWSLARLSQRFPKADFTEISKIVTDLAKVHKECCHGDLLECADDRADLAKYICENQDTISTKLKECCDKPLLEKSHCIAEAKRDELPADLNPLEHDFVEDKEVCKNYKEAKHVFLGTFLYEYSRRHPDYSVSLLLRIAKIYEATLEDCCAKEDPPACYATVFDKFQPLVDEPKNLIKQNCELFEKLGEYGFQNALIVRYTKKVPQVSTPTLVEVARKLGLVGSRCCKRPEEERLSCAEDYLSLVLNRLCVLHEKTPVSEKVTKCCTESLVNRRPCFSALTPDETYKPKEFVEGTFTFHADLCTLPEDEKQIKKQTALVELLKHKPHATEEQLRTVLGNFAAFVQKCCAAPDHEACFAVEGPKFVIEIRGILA

B1: DOM7m-12 (other)
VL: DIQMTQSPSSLSASVGDRVTITCRASQSIFRHLKWYQQKPGKAPKLLIYAASRLQSGVPSRFSGSGSGTDFTLTISSLQPEDFATYYCQQVALYPKTFGQGTKVEIKR
notes: also called MSA 12
B1: binds [1].

B2: DOM7r-1 (other)
VL: DIQTTQSPSSLSASVGDRVTITCRASQYIGRYLRWYQQKPGKAPKLLIYDSSVLQSGVPSRFSGSGSGTDFTLTISSLQPEDFATYYCQQRYRMPYTFGQGTRVEIKR
B2 was tested, and the Ka [2] was 8.41e+07 M⁻¹, the koff [2] was 0.0344 s⁻¹ and the kon [2] was 2.89e+06 M⁻¹ s⁻¹. The Kd [3] was 0.011 µM, the Kd [4] was 0.01 to 0.1 µM and the Kd [5] was 0.0163 µM. For the same binder, the Kd [6] was 0.0119 µM, the Kd [7] was 0.0131 µM and the Ka [8] was 6.12e+07 M⁻¹. For the same binder, the koff [8] was 0.0316 s⁻¹, the kon [8] was 1.93e+06 M⁻¹ s⁻¹ and the Kd [9] was 0.0107 µM. The binding result [10] was “no binding”, the Kd [11] was 0.015 µM and the binding result [12] was “no binding”. It also gave a Ka [13] of 9.07e+07 M⁻¹, a koff [13] of 0.0316 s⁻¹ and a kon [13] of 2.87e+06 M⁻¹ s⁻¹. It also gave a Ka [14] of 9.35e+07 M⁻¹, a koff [14] of 0.0345 s⁻¹ and a kon [14] of 3.23e+06 M⁻¹ s⁻¹. The Ka [15] was 7.62e+07 M⁻¹, the koff [15] was 0.0331 s⁻¹ and the kon [15] was 2.52e+06 M⁻¹ s⁻¹.

B3: DOM7h-8 (other)
VL: DIQMTQSPSSLSASVGDRVTITCRASQSISSYLNWYQQKPGKAPKLLIYRNSPLQSGVPSRFSGSGSGTDFTLTISSLQPEDFATYYCQQTYRVPPTFGQGTKVEIKR
In the case of B3, the Kd [4] is reported as 0.1 to 0.5 µM, the Kd [16] is reported as 0.01 to 0.1 µM and the Kd [17] is reported as 0.06 µM. The Kd [10] was 0.2 µM, the Kd [11] was 0.12 µM and the Kd [18] was 0.07 µM.

B4: DOM7h-1 (other)
VL: B3 VL with P53F, R93T, R108Q
notes: also called DOM7-1
B4 was tested, and the Ka [19] was 2.33e+06 M⁻¹, the koff [19] was 0.0481 s⁻¹ and the kon [19] was 112000 M⁻¹ s⁻¹. The Kd [20] was 0.97 µM, the Kd [16] was 0.5 to 5 µM and the Kd [21] was 0.957 µM. It also gave a Ka [22] of 1.03e+06 M⁻¹, a koff [22] of 0.0486 s⁻¹ and a kon [22] of 50100 M⁻¹ s⁻¹. The Ka [23] was 1.05e+06 M⁻¹, the koff [23] was 0.0539 s⁻¹ and the kon [23] was 56300 M⁻¹ s⁻¹. It also gave a Ka [24] of 2.85e+06 M⁻¹, a koff [24] of 0.0523 s⁻¹ and a kon [24] of 149000 M⁻¹ s⁻¹. It also gave a Kd [25] of 0.351 µM, a Kd [10] greater than 5 µM and a Kd [11] greater than 5 µM. It also gave a Kd [12] of 0.8 µM and a Kd [26] of 0.429 µM.

B5: DOM7h-7 (other)
VL: B3 VL with P53Q, Y92F, R93A
Work on B5 yielded a Kd [27] of 0.341 µM, a Kd [28] of 0.169 µM and a Ka [29] of 1.51e+06 M⁻¹. The koff [29] was 0.0946 s⁻¹, the kon [29] was 143000 M⁻¹ s⁻¹ and the Kd [30] was 0.353 µM. The Ka [31] was 5.93e+06 M⁻¹, the koff [31] was 0.105 s⁻¹ and the kon [31] was 623000 M⁻¹ s⁻¹. For the same binder, the koff [32] was 0.107 s⁻¹, the Kd [16] was 0.1 to 0.5 µM and the Ka [33] was 2.33e+06 M⁻¹. It also gave a koff [33] of 0.108 s⁻¹, a kon [33] of 251000 M⁻¹ s⁻¹ and a Kd [34] of 45.1 µM. It also gave a Ka [35] of 22100 M⁻¹, a koff [35] of 0.106 s⁻¹ and a kon [35] of 2350 M⁻¹ s⁻¹. The Kd [36] was 9710 µM, the Kd [37] was 0.2 µM and the Kd [10] was greater than 5 µM. For the same binder, the Kd [11] was greater than 5 µM, the Kd [12] was 0.4 µM and the Ka [38] was 2.93e+06 M⁻¹. It also gave a koff [38] of 0.103 s⁻¹, a kon [38] of 302000 M⁻¹ s⁻¹ and a Kd [39] of 0.43 µM. For the same binder, the Ka [40] was 2.83e+06 M⁻¹, the koff [40] was 0.0998 s⁻¹ and the kon [40] was 283000 M⁻¹ s⁻¹. For the same binder, the Kd [41] was 0.662 µM, the Ka [42] was 5.01e+06 M⁻¹ and the koff [42] was 0.1 s⁻¹. The kon [42] was 501000 M⁻¹ s⁻¹.
